Target: MBP-III2 (rat) (UniProt P04937)
Assay: ELISA

Sequence of UniProt P04937 (P04937 701-808): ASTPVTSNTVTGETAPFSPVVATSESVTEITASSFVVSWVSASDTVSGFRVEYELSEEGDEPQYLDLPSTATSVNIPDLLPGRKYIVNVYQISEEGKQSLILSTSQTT

“rat plasma fibronectin (from UniProt P04937 25-2477) (natural protein)” was tested, and the Kd was 28 nM.

From publication PMC2196193
